# Assay results published in paper PMC5003812 (Cell Reports, 2016).
# B1: GST-ATM fragment spanning 2,842–3,056 aa (domain or fragment)
# chain: PAIWFEKRLAYTRSVATSSIVGYILGLGDRHVQNILINEQSAELVHIDLGVAFEQGKILPTPETVPFRLTRDIVDGMGITGVEGVFRRCCEKTMEVMRNSQETLLTIVEVLLYDPLFDWTMNPLKALYLQQRPEDETELHPTLNADDQECKRNLSDIDQSFNKVAERVLMRLQEKLKGVEEGTVLSVGGQVNLLIQQAIDPKNLSRLFPGWKAWV
# Target: recombinant human FOXO3a (human, UniProt O43524 1-673)
# Experiment: pull-down
# Sequence of recombinant human FOXO3a (O43524 whole entry): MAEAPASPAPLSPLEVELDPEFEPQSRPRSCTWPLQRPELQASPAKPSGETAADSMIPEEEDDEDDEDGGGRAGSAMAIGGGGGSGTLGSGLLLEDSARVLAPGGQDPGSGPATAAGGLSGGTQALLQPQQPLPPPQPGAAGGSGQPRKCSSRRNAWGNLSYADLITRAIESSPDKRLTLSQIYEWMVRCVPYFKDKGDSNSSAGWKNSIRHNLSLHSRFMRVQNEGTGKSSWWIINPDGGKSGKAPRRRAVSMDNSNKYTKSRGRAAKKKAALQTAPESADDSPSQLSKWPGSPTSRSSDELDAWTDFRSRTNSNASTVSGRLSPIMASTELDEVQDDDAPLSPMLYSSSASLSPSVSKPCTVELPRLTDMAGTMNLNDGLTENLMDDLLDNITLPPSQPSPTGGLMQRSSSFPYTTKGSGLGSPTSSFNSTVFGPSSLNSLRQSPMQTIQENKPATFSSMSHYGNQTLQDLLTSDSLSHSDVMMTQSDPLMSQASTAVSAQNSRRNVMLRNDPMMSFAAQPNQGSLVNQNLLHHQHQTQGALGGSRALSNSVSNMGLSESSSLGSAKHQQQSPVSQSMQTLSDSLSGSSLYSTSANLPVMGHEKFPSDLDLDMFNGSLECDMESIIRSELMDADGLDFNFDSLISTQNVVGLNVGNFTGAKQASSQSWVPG
binder,measurement,value
B1,binding result,binds
